From patent publication US20080311130A1 (IMMUNE DISEASE INSTITUTE, published 2008) come the findings set out here.

Where a chain is given by its changes, count along the chain named. Names may count otherwise.

Assay [1] concerns the target T1, ICAM-1-Fcγ (ICAM-1 residues of 1-480 fused to the Fc of human IgG, R&D Systems) (human, UniProt P05362 28-480).
T1 construct: range 1-480; Bought (R&D Systems); also called ICAM-1-Fcγ chimera; not shown: Fc of human IgG
Nature of the assay: SPR (Biacore); wild-type value from a previous study. For orientation: In SPR one partner is held on a chip, and binding of the other changes the refractive index at the surface.

The target in assay [2] is T1, ICAM-1-Fcγ (ICAM-1 residues of 1-480 …). Nature of the assay: SPR (Biacore 3000), I domain injected over ICAM-1-Fcγ-coupled CM5 chip, 10 mM MgCl2. As to the method:
(§1) Mutant I domains (F265S, F292A, F292G, F265S/F292G, and HA) with residues of Asn-129 to Tyr-307 were expressed in Escherichia coli BL21 (DE3) (Novagen), refolded, and purified as described previously⁶. ICAM-1-Fcγ-coupled or mock-coupled CM5 sensor chip as control was prepared using the amine coupling kit (BIAcore, Piscataway, N.J.), as described previously³³. Surface plasmon resonance was measured using Biacore 3000. I domains were injected over the chip in 20 mM Tris HCl, pH 8.0, 150 mM NaCl, 10 mM MgCl₂, at a flow rate of 10 μl/min at room temperature.
Several of the most activating mutants were expressed in Escherichia coli and refolded in order to measure the kinetics of binding to ICAM-1 by surface plasmon resonance (FIG. 2). Data are shown in Table 2, and for comparison are shown kinetics measured for the wild-type and disulfide-bonded IA and HA mutants in a previous study⁶, and for the same disulfide-bonded HA mutant in the current study.
(§2) The values shown in the table are mean ± SD from three independent measurements. The parameters of kₒₙ, koff, and Kd were calculated by fitting the 1:1 Langmuir binding model to the Biacore sensogram. The values were from the previous studies ⁶.

The target is the same in assay [3]. Nature of the assay: SPR (Biacore). As to the method:
Sensograms show the binding of the I domain mutants (F292A, F265S, F292G, and F265S/F292G) to ICAM-1-Fcγ-coated sensor chip. In all sensograms, the signals from the control surface, as described in Materials and Methods, were subtracted. I domain mutants were injected in a series of concentrations starting from 100 μM for F292A and 1 μM for F292G, F265S, and F265S/F292G, and the subsequent concentrations were by two-fold serial dilutions.
as §1, §2

Assay [4] addresses ICAM-1-Fcγ (ICAM-1 residues of 1-480 fused to the Fc of human IgG, R&D Systems) (human) (UniProt P05362). Nature of the assay: flow cytometry on yeast-displayed I domain, ICAM-1-Fcγ 10 µg/ml. (In general: A flow cytometer gives signals particle by particle.)
Assay [5] deals with T1, ICAM-1-Fcγ (ICAM-1 residues of 1-480 …). The assay is described as above. As to the method: Cells that were cultured only in SD-CAA or further induced in SG-CAA were harvested, washed with 100 μl of labeling buffer (PBS, 0.5% BSA, 10 mM MgCl₂), and then incubated with ligands at 10 μg/ml in 50 μl of the labeling buffer for 20 min with shaking at 30° C. in a 96-well V-bottom plate. Ligands used in this study were anti-c-myc antibody 9E10 (Santa Cruz Biotechnology, CA) and anti-hemagglutinin antibody 12CA5 (Roche Applied Science), αL I domain-specific antibodies TS1/22 and MEM83³², and ICAM-1-Fcγ (ICAM-1 residues of 1-480 fused to the Fc of human IgG, R&D Systems). After incubation with the primary ligands, cells were washed once in 100 μl of the labeling buffer and incubated with the fluorescence-conjugated secondary antibodies at 5 μg/ml in 50 μl of the labeling buffer for 20 min at 4° C. Finally, cells were washed once in 100 μl and suspended in 100 μl of the labeling buffer for flow cytometry (FACScan, BD Biosciences).
A total of twenty-five yeast colonies were picked from SD-CAA plates from the libraries selected with ICAM-1-Fcγ. These clones were tested for binding of ICAM-1-Fcγ, and sequenced (Table 1). Of these, 15 had unique sequences and were designated as m1 to m15, and all bound ICAM-1 better than wild-type (Table 1). Five clones contained single mutations, and the remainder contained 2-5 mutations each (Table 1). From the clones containing multiple mutations, one to three residues were selected and independently tested as a single substitution (designated with a, b, or c suffix) or independently isolated from the ratchet residue library (see below).

T1 sequence (P05362 28-480 limits assumed, form in doubt): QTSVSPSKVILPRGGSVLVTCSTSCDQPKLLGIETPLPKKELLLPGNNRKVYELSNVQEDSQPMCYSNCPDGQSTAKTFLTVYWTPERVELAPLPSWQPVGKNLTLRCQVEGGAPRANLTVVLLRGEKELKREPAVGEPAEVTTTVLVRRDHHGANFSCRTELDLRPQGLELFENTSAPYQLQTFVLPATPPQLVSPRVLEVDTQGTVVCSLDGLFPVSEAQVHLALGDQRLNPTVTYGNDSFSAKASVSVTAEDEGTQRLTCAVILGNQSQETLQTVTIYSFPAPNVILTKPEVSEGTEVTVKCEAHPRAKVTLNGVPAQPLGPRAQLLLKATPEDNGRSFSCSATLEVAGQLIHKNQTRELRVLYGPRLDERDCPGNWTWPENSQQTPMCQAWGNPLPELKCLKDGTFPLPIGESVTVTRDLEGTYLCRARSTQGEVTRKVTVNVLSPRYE
ICAM-1-Fcγ (ICAM-1 residues of 1-480 fused to the Fc of human IgG, R&D Systems) (human), sequence (P05362 28-480 limits assumed): as the sequence (P05362 28-480 limits assumed, form in doubt) above

B1: soluble αL I domain mutant F292G, Asn-129 to Tyr-307 (receptor)
chain: NVDLVFLFDGSMSLQPDEFQKILDFMKDVMKKLSNTSYQFAAVQFSTSYKTEFDFSDYVKWKDPDALLKHVKHMLLLTNTFGAINYVATEVFREELGARPDATKVLIIITDGEATDSGNIDAAKDIIRYIIGIGKHFQTKESQETLHKFASKPASEFVKILDTGEKLKDLFTELQKKIY
As usually defined, the Kd is the free concentration of one partner at which half of the binding sites on the other are occupied at equilibrium, for simple one-to-one binding. Low readings indicate tighter binding, high ones weaker binding. Usually koff stands for the first-order rate constant of dissociation. Lower therefore signals slow dissociation. Usually kon stands for the second-order rate constant of association. B1: in assay [1], the “fold decrease in dissociation-rate (against wild type)” value turned out to be 1000 fold and the “fold increase in affinity (against wild type)” value (“fold increase in affinity” below) was 10000 fold. Besides, in assay [2], binding was put at a Kd of 119 nM, the koff is 0.0019 s⁻¹ and the kon amounted to 16000 M⁻¹ s⁻¹. Besides, in assay [3], the “fold higher affinity compared to the F292A mutant” value amounted to 170 fold and the “fold slower dissociation rate than the F292A mutant” value came to 100 fold.

B2: soluble αL I domain mutant F265S, Asn-129 to Tyr-307 (receptor)
chain: B1 chain with F137S, G164F
Turning to B2, in assay [1], the “fold decrease in dissociation-rate (against wild type)” value was determined as 1000 fold and the “fold increase in affinity” value amounted to 10000 fold. In assay [2], this molecule yielded a dissociation constant Kd of 145 nM, a koff of 0.0017 s⁻¹ and an on-rate (kon) of 11800 M⁻¹ s⁻¹. The “fold slower dissociation rate than the F292A mutant” value in assay [3] is 100 fold.

B3: soluble αL I domain mutant F292A, Asn-129 to Tyr-307 (receptor)
chain: B1 chain with G164A
For B3, the “fold increase in affinity” value in assay [1] was found to be 75 fold. In assay [2], this molecule showed a Kd of 20000 nM, a koff of 0.19 s⁻¹ and a kon of 9500 M⁻¹ s⁻¹.

B4: αL I domain clone m10b (E293G), yeast-displayed (receptor, not shown: large carriers; small tags and cut ends)
chain: NVDLVFLFDGSMSLQPDEFQKILDFMKDVMKKLSNTSYQFAAVQFSTSYKTEFDFSDYVKWKDPDALLKHVKHMLLLTNTFGAINYVATEVFREELGARPDATKVLIIITDGEATDSGNIDAAKDIIRYIIGIGKHFQTKESQETLHKFASKPASEFVKILDTFGKLKDLFTELQKKIYVIEGTSKQDLT
B4: the ICAM-1 (% ASFI of HA) in assay [4] was 4 % ASFI of HA.

B5: αL I domain clone m7 (F292S), yeast-displayed (receptor)
chain: B4 chain with F164S, G165E
notes: yeast surface display; not shown: Aga2, linker and hemagglutinin tag of pCTCON; c-myc tag
B5: the “ICAM-1 (% ASFI of HA)” value in assay [5] is 47 % ASFI of HA.

B6: αL I domain clone f5 (F292A), yeast-displayed (receptor)
chain: B4 chain with F164A, G165E
notes: as for B5
Regarding B6, the “ICAM-1 (% ASFI of HA)” value in assay [5] was 29 % ASFI of HA.

B7: αL I domain clone m5 (L274I, S279T), yeast-displayed (receptor)
chain: B4 chain with L146I, S151T, G165E
notes: as for B5
With B7, the “ICAM-1 (% ASFI of HA)” value in assay [5] was 51 % ASFI of HA.

B8: αL I domain clone f8 (L295A), yeast-displayed (receptor)
chain: B4 chain with G165E, L167A
notes: as for B5
In the case of B8, the “ICAM-1 (% ASFI of HA)” value in assay [5] was 25 % ASFI of HA.

B9: αL I domain clone m5a (L274I), yeast-displayed (receptor)
chain: B4 chain with L146I, G165E
notes: as for B5
With B9, the “ICAM-1 (% ASFI of HA)” value in assay [5] was 91 % ASFI of HA.

B10: αL I domain clone m12 (I150T, G246V, F299L, I309T), yeast-displayed (receptor)
chain: B4 chain with I22T, G118V, G165E, F171L, I181T
notes: as for B5
B10: in assay [5], the “ICAM-1 (% ASFI of HA)” value was 27 % ASFI of HA.

B11: αL I domain clone m6 (F209Y, L289P), yeast-displayed (receptor)
chain: B4 chain with F81Y, L161P, G165E
notes: as for B5
Take B11: in assay [5], the “ICAM-1 (% ASFI of HA)” value is 33 % ASFI of HA.

B12: αL I domain clone m13 (F265S), yeast-displayed (receptor)
chain: B4 chain with F137S, G165E
notes: as for B5
For B12, the “ICAM-1 (% ASFI of HA)” value in assay [5] is 123 % ASFI of HA.

B13: αL I domain clone m15 (F277L, I288T), yeast-displayed (receptor)
chain: B4 chain with F149L, I160T, G165E
notes: as for B5
In the case of B13, the “ICAM-1 (% ASFI of HA)” value in assay [5] was 30 % ASFI of HA.

B14: αL I domain clone m11 (L295P, Q303R), yeast-displayed (receptor)
chain: B4 chain with G165E, L167P, Q175R
notes: as for B5
For the molecule B14, the “ICAM-1 (% ASFI of HA)” value in assay [5] was 107 % ASFI of HA.

B15: αL I domain clone f11 (L295W), yeast-displayed (receptor)
chain: B4 chain with G165E, L167W
notes: as for B5
For B15, the “ICAM-1 (% ASFI of HA)” value in assay [5] was 81 % ASFI of HA.

B16: αL I domain clone m4 (F134L, K252E, F265S), yeast-displayed (receptor)
chain: B4 chain with F6L, K124E, F137S, G165E
notes: as for B5
For B16, the “ICAM-1 (% ASFI of HA)” value in assay [5] is 31 % ASFI of HA.

B17: αL I domain clone m10 (F265L, E293G, K294E, K296E, V308I), yeast-displayed (receptor)
chain: B4 chain with F137L, K166E, K168E, V180I
notes: as for B5
Turning to B17, the “ICAM-1 (% ASFI of HA)” value in assay [5] was 16 % ASFI of HA.

B18: αL I domain clone m8 (F292S, P281E), yeast-displayed (receptor)
chain: B4 chain with P153E, F164S, G165E
notes: as for B5
With B18, the “ICAM-1 (% ASFI of HA)” value in assay [5] was 54 % ASFI of HA.

B19: αL I domain clone f3 (L289P), yeast-displayed (receptor)
chain: B4 chain with L161P, G165E
notes: as for B5
In the case of B19, the “ICAM-1 (% ASFI of HA)” value in assay [5] was 24 % ASFI of HA.

B20: αL I domain clone f7 (F292P), yeast-displayed (receptor)
chain: B4 chain with F164P, G165E
notes: as for B5
As to B20, in assay [5], the “ICAM-1 (% ASFI of HA)” value is 5 % ASFI of HA.

B21: αL I domain clone f6 (F292G), yeast-displayed (receptor)
chain: B4 chain with F164G, G165E
notes: as for B5
B21: the “ICAM-1 (% ASFI of HA)” value in assay [5] was 91 % ASFI of HA.

B22: αL I domain clone f10 (L295Q), yeast-displayed (receptor)
chain: B4 chain with G165E, L167Q
notes: as for B5
Turning to B22, in assay [5], the “ICAM-1 (% ASFI of HA)” value was 4 % ASFI of HA.

B23: αL I domain clone m9 (F292S, Y177R, L204Q), yeast-displayed (receptor)
chain: B4 chain with Y49R, L76Q, F164S, G165E
notes: as for B5
As to B23, in assay [5], the “ICAM-1 (% ASFI of HA)” value was 28 % ASFI of HA.

B24: αL I domain clone m12c (I309T), yeast-displayed (receptor)
chain: B4 chain with G165E, I181T
notes: as for B5
Take B24: the “ICAM-1 (% ASFI of HA)” value in assay [5] is 17 % ASFI of HA.

B25: αL I domain clone f4 (L289W), yeast-displayed (receptor)
chain: B4 chain with L161W, G165E
notes: as for B5
For the molecule B25, the “ICAM-1 (% ASFI of HA)” value in assay [5] is 51 % ASFI of HA.

B26: αL I domain clone m2 (I258T, T267A, F277A), yeast-displayed (receptor)
chain: B4 chain with I130T, T139A, F149A, G165E
notes: as for B5
With B26, the “ICAM-1 (% ASFI of HA)” value in assay [5] was 10 % ASFI of HA.

B27: αL I domain clone m3 (G262E), yeast-displayed (receptor)
chain: B4 chain with G134E, G165E
notes: as for B5
Take B27: the “ICAM-1 (% ASFI of HA)” value in assay [5] is 4 % ASFI of HA.

B28: αL I domain clone m15a (F277L), yeast-displayed (receptor)
chain: B4 chain with F149L, G165E
notes: as for B5
For B28, in assay [5], the “ICAM-1 (% ASFI of HA)” value is 110 % ASFI of HA.

B29: αL I domain clone f9 (L295P), yeast-displayed (receptor)
chain: B4 chain with G165E, L167P
notes: as for B5
B29: the “ICAM-1 (% ASFI of HA)” value in assay [5] is 5 % ASFI of HA.

B30: αL I domain clone f2 (L289G), yeast-displayed (receptor)
chain: B4 chain with L161G, G165E
notes: as for B5
With B30, in assay [5], the “ICAM-1 (% ASFI of HA)” value is 74 % ASFI of HA.

B31: αL I domain clone m1 (I258T), yeast-displayed (receptor)
chain: B4 chain with I130T, G165E
notes: as for B5
As to B31, the “ICAM-1 (% ASFI of HA)” value in assay [5] was 10 % ASFI of HA.

B32: αL I domain clone m14 (I288N), yeast-displayed (receptor)
chain: B4 chain with I160N, G165E
notes: as for B5
Take B32: the “ICAM-1 (% ASFI of HA)” value in assay [5] was 14 % ASFI of HA.
